These results are taken from article PMC10107152.

Positions count from the first letter of the chain named. Names and notes keep the numbering of the source.

As usually defined, the Km is the substrate concentration at which the rate is half of its maximum. What is called kcat is the maximal rate divided by the concentration of active sites. Broadly, the kcat/Km is the second-order rate constant that governs catalysis at low substrate concentration.

The chains are these.
B1: 2PS (2-pyrone synthase; WT-2PS) (Gerbera hybrid cultivar) (protein)
chain: MGSYSSDDVEVIREAGRAQGLATILAIGTATPPNCVAQADYADYYFRVTKSEHMVDLKEKFKRICEKTAIKKRYLALTEDYLQENPTMCEFMAPSLNARQDLVVTGVPMLGKEAAVKAIDEWGLPKSKITHLIFCTTAGVDMPGADYQLVKLLGLSPSVKRYMLYQQGCAAGGTVLRLAKDLAENNKGSRVLIVCSEITAILFHGPNENHLDSLVAQALFGDGAAALIVGSGPHLAVERPIFEIVSTDQTILPDTEKAMKLHLREGGLTFQLHRDVPLMVAKNIENAAEKALSPLGITDWNSVFWMVHPGGRAILDQVERKLNLKEDKLRASRHVLSEYGNLISACVLFIIDEVRKRSMAEGKSTTGEGLDCGVLFGFGPGMTVETVVLRSVRVTAAVANGN
B2: 2PS (2-pyrone synthase; WT-2PS) (Gerbera hybrid cultivar; I201V/I343S/L202T/L261A) (protein)
chain: B1 chain with I201V, L202T, L261A, I343S
B3: 2PS (2-pyrone synthase; WT-2PS) (Gerbera hybrid cultivar; I201V/I343S/L202T/L261V) (protein)
chain: B1 chain with I201V, L202T, L261V, I343S
B4: 2PS (2-pyrone synthase; WT-2PS) (Gerbera hybrid cultivar; I201V/I343S/L202T/L261G) (protein)
chain: B1 chain with I201V, L202T, L261G, I343S
B5: 2PS (2-pyrone synthase; WT-2PS) (Gerbera hybrid cultivar; I201V/I343S/L202T) (protein)
chain: B1 chain with I201V, L202T, I343S
B6: SPS (styrylpyrone synthase; WT-SPS) (Piper methysticum) (protein)
chain: MSKTVEDRAAQRAKGPATVLAIGTATPANVVYQTDYPDYYFRVTKSEHMTKLKNKFQRMCDRSTIKKRYMVLTEELLEKNLSLCTYMEPSLDARQDILVPEVPKLGKEAADEAIAEWGRPKSEITHLIFCTTCGVDMPGADYQLTKLLGLRSSVRRTMLYQQGCFGGGTVLRLAKDLAENNAGARVLVVCSEITTAVNFRGPSDTHLDLLVGLALFGDGAAAVIVGADPDPTLERPLFQIVSGAQTILPDSEGAINGHLREVGLTIRLLKDVPGLVSMNIEKCLMEAFAPMGIHDWNSIFWIAHPGGPTILDQVEAKLGLKEEKLKSTRAVLREYGNMSSACVLFILDEVRKRSMEEGKTTTGEGFDWGVLFGFGPGFTVETVVLHSMPIPKADEGR

Substrate in this series: CC(C)(COP(=O)(O)OP(=O)(O)OC[C@H]1O[C@@H](n2cnc3c(N)ncnc32)[C@H](O)[C@@H]1OP(=O)(O)O)[C@@H](O)C(=O)NCCC(=O)NCCSC(=O)/C=C/c1ccccc1
Description: purified protein. The following applies: varied cinnamoyl-CoA; malonyl-CoA as extender.
Take B1: the Michaelis constant (Km) amounted to 1.6 ± 0.5 µM, the kcat worked out at 0.000533 ± 5e-05 s⁻¹ and the catalytic efficiency (kcat/Km) was found to be 340 ± 60 M⁻¹ s⁻¹.

Consider B2, for which the Km turned out to be 4.2 ± 0.8 µM, the kcat turned out to be 0.0312 ± 0.00233 s⁻¹ and the kcat/Km amounted to 7400 ± 1500 M⁻¹ s⁻¹.

Consider B3, for which the Km is 2.1 ± 0.5 µM, the kcat was found to be 0.00225 ± 0.000167 s⁻¹ and the kcat/Km amounted to 1070 ± 270 M⁻¹ s⁻¹.

For the protein B4, the Km worked out at 7.1 ± 1.1 µM, the kcat stood at 0.165 ± 0.01 s⁻¹ and the kcat/Km came to 23000 ± 4000 M⁻¹ s⁻¹.

Regarding B5, the Km turned out to be 1.4 ± 0.3 µM, the kcat was 0.000767 ± 3.33e-05 s⁻¹ and the kcat/Km amounted to 568 ± 116 M⁻¹ s⁻¹.

As for B6, the Km was 3.7 ± 0.5 µM, the kcat was found to be 0.00287 ± 0.0001 s⁻¹ and the kcat/Km was determined as 770 ± 30 M⁻¹ s⁻¹.
